In patent US20130131320A1 (published 2013):

B1: h528 Fv comprising mutant VL LRL (other)
VH: QVQLVQSGAEVKKPGASVKVSCKASGYTFTSYWMHWVRQAPGQGLEWMGNIYPGSGGTNYAEKFKNRVTMTRDTSISTAYMELSRLRSDDTAVYYCARSGGPYFFDYWGQGTLVTVSS
VL: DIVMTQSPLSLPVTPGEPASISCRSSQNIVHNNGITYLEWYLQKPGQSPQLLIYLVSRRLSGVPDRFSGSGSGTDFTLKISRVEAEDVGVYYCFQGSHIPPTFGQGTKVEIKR
B2: h528Fv WT (other)
VH: QVQLVQSGAEVKKPGASVKVSCKASGYTFTSYWMHWVRQAPGQGLEWMGNIYPGSGGTNYAEKFKNRVTMTRDTSISTAYMELSRLRSDDTAVYYCARSGGPYFFDYWGQGTLVTVSS
VL: DIVMTQSPLSLPVTPGEPASISCRSSQNIVHNNGITYLEWYLQKPGQSPQLLIYKVSDRFSGVPDRFSGSGSGTDFTLKISRVEAEDVGVYYCFQGSHIPPTFGQGTKVEIKR
B3: h528 Fv comprising mutant VL LRS (other)
VH: QVQLVQSGAEVKKPGASVKVSCKASGYTFTSYWMHWVRQAPGQGLEWMGNIYPGSGGTNYAEKFKNRVTMTRDTSISTAYMELSRLRSDDTAVYYCARSGGPYFFDYWGQGTLVTVSS
VL: DIVMTQSPLSLPVTPGEPASISCRSSQNIVHNNGITYLEWYLQKPGQSPQLLIYLVSRRSSGVPDRFSGSGSGTDFTLKISRVEAEDVGVYYCFQGSHIPPTFGQGTKVEIKR

Tests used:
[1] = biological target: T1, soluble EGFR (human epithelial cell growth factor receptor 1, Her1) (human, UniProt P00533 25-645); assay: SPR
[2] = biological target: T1, soluble EGFR (human epithelial cell …); assay: ITC
[3] = biological target: T1, soluble EGFR (human epithelial cell …); assay: SPR; remark: listed apart in the source

| Binder | Ka [1] [M⁻¹] | Ka [2] [M⁻¹] | koff [3] [s⁻¹] |
| --- | --- | --- | --- |
| B1 | 3.5e+08 | 4.1e+09 | 0.00085 |
| B2 | 4e+07 | 2.1e+07 | 0.006 |
| B3 | 6.8e+08 | 1.05e+09 | 0.00078 |
